In the test the target is T1, mouse CD137-Fc chimeric protein (mouse), P20334.
T1 chain: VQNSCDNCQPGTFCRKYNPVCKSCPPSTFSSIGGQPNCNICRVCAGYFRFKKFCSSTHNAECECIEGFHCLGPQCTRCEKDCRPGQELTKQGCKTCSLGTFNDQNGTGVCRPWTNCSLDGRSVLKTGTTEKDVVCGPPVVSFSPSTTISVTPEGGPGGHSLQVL
In words: SPR, CD137-Fc captured, binder injected. The conditions noted are these: remark: other sources report otherwise.

Here are results for one molecule from patent EP3470426A1.

B1: PRO963 (protein)
chain: DIQMTQSPSSLSASVGDRVTITCQASQSINDYLAWYQQKPGKAPKLLIYKASTLASGVPSRFSGSGSGTDFTLTISSLQPEDFATYYCQQGYIITDIDNVFGTGTKVTVLGGGGGSQVQLQESGPGLVKPSETLSLTCKVSGFSFSNSYWICWIRQPPGKGLEWIGCTFVGSSDSTYYANWAKGRVTISVDSSKNQFSLKLSSVTAADTAVYYCARHPSDAVYGYANNLWGQGTLVTVSSGGGGSGGGGSGGGGSGGGGSIQMTQSPSSLSASVGDRVTITCQASQSINNVLAWYQQKPGKAPKLLIYRASTLASGVPSRFSGSGSGTDFTLTISSLQPEDFATYYCQSSYGNYGDFGTGTKVTVLGGGGGSQVQLQESGPGLVKPSETLSLTCKVSGFSFSSGYDMCWIRQPPGKGLEWIGCVVAGSVDITYYASWAKGRVTISVDSSKNQFSLKLSSVTAADTAVYYCARKDAYSDAFNLWGQGTLVTVSSGGGGSGGGGSIQMTQSPSSLSASVGDRVTITCQSSESVYSNNQLSWYQQKPGQPPKLLIYDASDLASGVPSRFSGSGSGTDFTLTISSLQPEDFATYYCAGGFSSSSDTAFGGGTKLTVLGGGGGSGGGGSGGGGSGGGGSEVQLVESGGGLVQPGGSLRLSCAASGFSLSSNAMGWVRQAPGKGLEYIGIISVGGFTYYASWAKGRFTISRDNSKNTVYLQMNSLRAEDTATYFCARDRHGGDSSGAFYLWGQGTLVTVSS
In the case of B1, the dissociation constant Kd is 170 nM, the koff is 0.059 s⁻¹ and the on-rate (kon) was found to be 350000 M⁻¹ s⁻¹.
